Test results taken from the RNAGym collection of RNA variant scans (doi:10.7554/elife.90254).

B1: LINE1-full (parent)
chain: UACGUAGGUGGUUUUCCCCUGAUAGUGCUAAGGGGGCCUGGAAGUUUGGACUGGGCAGAGCUCAACACAGCGUGGCAAAGUGGCUGUGGCUAGACUGCCUCUCUGGAUUCCUCGUCACUCAGCAGGGCAUCUCUGAGAGAAAUGCC

Variants of: B1
Test: self-cleavage, relative activity (ratio to wild type); higher = more cleavage; in vitro, sequencing; the parent is a self-cleaving ribozyme

Variant	self-cleavage
U20C	1.37
C17U A140U	1.11
U20A U112C	0.79
U20A G86A	0.18
C16A A136G	0.57
U20A U134A	0.92
C19G A77G	2.07
C16U A117G	0.57
U15G U29C	1.05
U15G U132C	1.81
C16U U134C	2.6
C19U G114A	1.28
C19A G32A	0.91
C19A A142G	1.3
C18U G126U	1.62
C18U C56U	0.24
C17A A43G	0.89
U20A G53U	1.1
C18G U115C	1.67
U15G G126C	1.19
C18A C37G	0.99
U20A A121G	1.14
U20A A121U	1.55
U20C A79U	1.7

Variant	self-cleavage
U20C A79G	1.5
C19A A124G	0.58
C17U A79U	1.1
C16A A138G	1.65
C16U A124G	0.58
C19G U52A	1.16
U20A A57U	0.11
U20A A57G	1
C19G G126A	0.49
C19U G125U	1.81
U20A G34A	0.88
U20A U132A	1.61
U20C A69U	0.07
U20C A69G	0.66
C19U A129U	1.84
C19U C95U	0.43
C17U U46A	0.72
U20A U73C	1.42
U20A U73A	1.5
U20C A78U	1.86
C17U U39C	0.92
C19A U20C	1.04
U20C C71U	0.77
C19A A59G	0.13

Variant	self-cleavage
C18A U81C	1.31
C19A A50G	1.48
U20C A140G	1.35
U20C C110U	1.4
C16U A67G	0.45
C18U U45C	0.57
C16A U47G	0.75
C18U A77U	1.11
C18U A77G	1.91
C17U U143C	1.03
C17U U143A	0.85
U20C A136C	1.74
U20C A136G	1.26
C18U U85G	0.23
C18U U85A	0.13
U20A A65G	0.11
U20A A136U	1.38
U20A A67U	0.13
U20A A67G	0.45
C16U U20A	1.02
C18A U132A	1.38
U20C G40C	2.31
U20A U91C	0.65
U20C A22G	1.04

Variant	self-cleavage
U20C A22U	1.12
U20C A107U	1.34
U20C A107G	1.6
C19U A136G	0.95
U20A A92U	0.92
U20A A92G	0.05
U20C C99U	0.68
C19U A124U	0.76
C16A U104A	0.47
C19U G74A	1.12
C17G A141G	0.47
U20A U85C	0.09
C19U A77U	1.3
C17U A77U	0.36
C18U C71A	0.09
C17U U62C	0.04
C19U A69G	0.77
C19G A42G	1.41
U20C A77U	1.02
U20C A77G	1.7
C16U U108C	1.72
C19U U130C	1.08
U20A U115C	1.66
U20A A42U	0.9

Variant	self-cleavage
C18A U115C	1.85
U20A U102C	1.46
U20C C28A	0.84
C19U	1.21
C19A	0.97
C19G	0.35
U20A A24U	1.41
U20C A59G	0.11
C19U A43U	1.41
U20A A78U	1.34
U20C C56U	0.11
U20C A50G	0.66
C18A U45A	1.06
C18U U26C	2.16
C19A C128U	1.08
C17A U46C	1.42
U20C G35A	1.73
U20A C37G	2.63
C19U U91C	0.62
C17U U87A	0.11
C17U U87C	0.23
C17U U115C	1.48
C18U A64U	0.19
U20A G127A	1.1

Variant	self-cleavage
C16U U104C	1.03
U20A A142G	1.08
C19U A78U	1.72
C19U A78C	1.71
C19U A22G	1.18
U20A G36A	0.94
U20A G36C	0.93
C17U U104C	1.33
U20A A50U	1.06
U20A A79G	0.92
C17U A59G	0.17
C18U G25A	0.39
C18U A94G	0.32
C18U U96A	0.08
U20A A77C	1.75
U20A A77G	2.25
U20A A77U	1.14
C19U A67U	0.1
U20A U45C	1.36
C19U A107G	1.41
C19U A107U	1.5
C18A U96C	0.22
U20A U29A	1.05
C18A A22G	0.7

Variant	self-cleavage
U20A C56U	0.18
C19U U46C	1
C16A U81A	0.75
C19U U104A	1.07
C19U U104C	0.65
C18U A42C	0.74
C18U A136G	1.33
U20C A129G	2.29
U20C A129U	1.3
C16U A136U	1.29
U20A U62C	0.06
U15G U46C	0.59
C19A A78G	1.53
U20C C113A	1.06
C16U A140U	1.78
U20C G21A	1.12
C16A A121G	0.53
C17A U108C	1.96
U20C C103A	1.49
C16A U52C	0.69
U20A U39C	0.93
C16U	1.12
C16A	0.96
